The target in test [1] is rat HA-NK1R (neurokinin 1 receptor) (rat) (UniProt P14600).
For test [2] the target is unchanged. This is another data set of the same source.
For test [3] the target is unchanged. Description: high-content imaging fluorescent competition binding on cells; HEK-NK1R cells in 96-well plates, increasing concentrations of Span or Span-Chol with 0.5 nM SP-TAMRA, 30 min in total, 37°C; granularity analysis, total cell binding (cell surface and intracellular); competitive binding, one site, fit logIC50.
Test [4] shares this target. Description: high-content imaging fluorescent competition binding on cells; HEK-NK1R cells in 96-well plates, preincubated with Span or Span-Chol for 3.5 h, then 0.5 nM SP-TAMRA for a further 30 min (4 h in total), 37°C; granularity analysis, total cell binding (cell surface and intracellular); competitive binding, one site, fit logIC50.
Test [5] shares this target. The source holds these as a separate data set.

Chain of UniProt P14600 (P14600 whole entry): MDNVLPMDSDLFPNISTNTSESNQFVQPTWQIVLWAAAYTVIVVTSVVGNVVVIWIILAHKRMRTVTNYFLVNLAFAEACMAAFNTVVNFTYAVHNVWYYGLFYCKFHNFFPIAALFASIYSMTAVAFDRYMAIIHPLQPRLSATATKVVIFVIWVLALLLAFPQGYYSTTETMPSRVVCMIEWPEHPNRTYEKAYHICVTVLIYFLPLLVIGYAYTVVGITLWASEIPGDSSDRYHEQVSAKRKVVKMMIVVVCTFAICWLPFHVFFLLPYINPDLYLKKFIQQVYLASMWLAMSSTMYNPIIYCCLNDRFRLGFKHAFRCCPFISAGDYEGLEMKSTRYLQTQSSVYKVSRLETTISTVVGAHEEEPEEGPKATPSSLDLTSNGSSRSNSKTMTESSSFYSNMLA

Substance Spantide I (peptide) came in with an inhibition of Ca^2+ transients to 1 nM SP in HEK-NK1R cells, 30 min preincubation with antagonist (blocks SP with NK1R); pIC50 in test [1] of 4.87. For the same substance, in test [2], the inhibition of Ca^2+ transients to 1 nM SP in HEK-NK1R cells, continuous 4 h incubation with antagonist (blocks SP with NK1R); pIC50 was found to be 5.11. Moreover, the pIC50 (usually −log10 of the IC50, conventionally taken in molar units) in test [3] was found to be 5.99; in test [4], 5.55.
On to “Spantide I conjugated to cholestanol via PEG linker (Span-Chol) (peptide)”, for which the inhibition of Ca^2+ transients to 1 nM SP in HEK-NK1R cells, 30 min preincubation with antagonist (blocks SP with NK1R); pIC50 in test [1] was determined as 6.25. Besides, the inhibition of Ca^2+ transients to 1 nM SP in HEK-NK1R cells, continuous 4 h incubation with antagonist (blocks SP with NK1R); pIC50 in test [2] was 6.36. Also, the inhibition of Ca^2+ transients to 1 nM SP in HEK-NK1R cells, pulsed administration (30 min antagonist, wash, 3.5 h; 4 h total) (blocks SP with NK1R); pIC50 in test [5] was found to be 6.15. Moreover, the pIC50 in test [3] stood at 6.28; in test [4] it was 6.5.

Source of the values: PMC7949131.
